These are literature values, as cited in paper PMC8588233.

pKd: −log10 of the molar value. Read-outs that look alike come from different tables or passages of the source.

In series [1] the target is HER2 (Homo sapiens) (UniProt P04626).
Series [2] has the same target. The source holds these as a separate data set.
For series [3] the target is unchanged. This is another data set of the same source.

With KCCYSL peptide, the pKd in series [1] is 6.53.

AHNP (111In-DTPA-peptide-PEG): in series [2], the pKd is 6.52.

For the substance AHNP, in series [3], the pKd is 6.40.
